Data published in patent US20040219554, “Dna binding protein” (published 2004).

T1: DUE-B (Homo sapiens, UniProt Q8TEA8 SEQ:1-209)
T1 sequence: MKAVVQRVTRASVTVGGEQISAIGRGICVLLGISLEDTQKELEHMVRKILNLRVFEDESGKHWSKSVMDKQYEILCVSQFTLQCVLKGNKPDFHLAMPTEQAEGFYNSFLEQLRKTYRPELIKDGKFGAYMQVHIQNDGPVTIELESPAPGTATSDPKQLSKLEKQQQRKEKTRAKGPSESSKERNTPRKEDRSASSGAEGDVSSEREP


Assays:
DUE-B [1] = molecular target: T1, DUE-B; assay: FP; saturable polarization; 2 nM oligo; 100 mM Tris pH 7.5 (printed mN), 800 mM NaCl, 10 mM EDTA; reversed by poly dI-dC; 16-epiestriol (E2850) stimulates; details: tags: N-terminal 6His and V5, baculovirus expressed; label: FITC at 3' end of both strands via C6 spacer
Description: A mastermix is prepared consisting of 1× reaction buffer, 2 nM labeled oligo and 0.125 or 0.250 ug DUE-B per 100 ul of mastermix. Compounds (in this case steroids) are added to the bottom of a 96 well plate. 100 ul of mastermix is added to each well and allowed to equilibrate for 30 sec. Fluorescence polarization is then measured.
In FIG. 23A, the effect of increasing concentrations of DUE-B on the polarization of dsDNA was assessed. As expected, polarization of the dsDNA becomes saturated as the DUE-B protein concentration increases. Note that at 0.125 and 0.250 μg of DUE-B a reasonable shift in polarization of dsDNA is seen. Using these set conditions (0.250 ug DUE-B), the effect of adding a non-specific DNA inhibitor (pdldC) to the reaction (FIG. 23B) was tested. […] It is observed that the polarization was stable for at least 2 hours, making this assay very feasible for high throughput screening.

DUE-B [2] = molecular target: T1, DUE-B; assay: EMSA; strongly retarded complex without poly dI-dC; 30 C 30 min; reduced by poly dI-dC; details: tags: 6His, baculovirus/Sf9 expressed, Ni-NTA; label: 32P (alpha-32P-dCTP by PCR)
Description: An electrophoretic mobility shift assay (EMSA) was used to test whether the baculovirus expressed DUE-B protein could bind to DNA in vitro. When added to a radiolabeled c-myc DUE probe in the absence of nonspecific competitor (poly dI-dC), DUE-B produced a strongly retarded protein-DNA complex band (FIG. 14, lanes 1-4). […] When HeLa cell cytoplasmic extract was added to the c-myc DUE probe in the absence of poly dI-dC an intense band was observed that was not affected by the addition of DUE-B (lanes 13-16). With the addition of the nonspecific competitor poly dI-dC, however, a novel band appeared that was dependent on the addition of DUE-B (asterisks, lanes 17-24). […] Similar to the results obtained when cytosol was added to the c-myc DUE probe, when nuclear extract from HeLa cells was added to the c-myc DUE probe in the absence of poly dI-dC an intense band was observed that was not affected by the addition of DUE-B (lanes 25-28). In the presence of competitor for nonspecific binding, however, a novel band appeared that was dependent on the addition of DUE-B (brackets, lanes 32 and 36). […] In FIG. 14, a 123 bp fragment of the c-myc replication origin containing the DUE/ARS region was labeled with alpha-³²P-dCTP by PCR. 25 fmol were mixed with recombinant DUE-B purified by Ni-NTA affinity chromatography from SF9 insect cells. […]

Binder | binding result (DUE-B [1]) | binding result (DUE-B [2])
DUE 30-mer probe (dsDNA) DNA 1: GGAATATACATTATATATTAAATATAGATC DNA 2: GATCTATATTTAATATATAATGTATATTCC | binds | 
c-myc DUE/ARS 123 bp probe (dsDNA) DNA 1: GAAGGAATTCATGAGAAGAATGTTTTTTGTTTTTCATGCCGTGGAATAACACAAAATAAAAAATCCCGAGGGAATATACATTATATATTAAATATAGATCATTTCAGGGAGCTCGAGAAACAA DNA 2: TTGTTTCTCGAGCTCCCTGAAATGATCTATATTTAATATATAATGTATATTCCCTCGGGATTTTTTATTTTGTGTTATTCCACGGCATGAAAAACAAAAAACATTCTTCTCATGAATTCCTTC |  | binds
